Source: publication PMC8501640, “Altered Env conformational dynamics as a mechanism of resistance to peptide-triazole HIV-1 inactivators” (Retrovirology, 2021)
pEC50, pKd: −log10 of the molar value.

Legend:
HxBc2 gp120 WT monomer = HxBc2 gp120 WT monomer (Human immunodeficiency virus type 1 group M subtype B, UniProt P04578); experiment: Isothermal titration calorimetry, WT gp120; format: binding, HIV-1; settings: 25 °C
Procedure: (§1) Heats were obtained at 25 °C by injection of 8 μL of PT (100 μM) into a sample cell of a VP-ITC containing 1.4 mL recombinant HxBc2 gp120 (6–8 μM). Solid lines represent fits to a single site binding model.
(§2) The resulting heat changes upon injection were integrated over a time range of 240 s, and the obtained values were fit to a standard single site-binding model using Origin® software.

BaL.01 viruses = test system: BaL.01 viruses; set-up: method as in PMID 24330857, PMID 26331669; settings: ref [16], [21], read-out: EC50 of induced gp120 shedding; cited from earlier work
[1] = target: HxBc2 gp120 V255I/S143N monomer (Human immunodeficiency virus type 1 group M subtype B, UniProt P04578, S143N/V255I); experiment: Isothermal titration calorimetry, V255I/S143N gp120; format: binding, HIV-1; settings: 25 °C
Procedure: as §1, §2

[2] = target: HIV-1 HxBc2 gp120 V255I monomer (Human immunodeficiency virus type 1 group M subtype B, UniProt P04578, V255I); experiment: Surface plasmon resonance, V255I gp120; format: binding
Procedure: (§3) SPR experiments were performed on a Biacore 3000 biosensor (Global Cytiva Lifesciences) at 25 °C using PBS-P (10 mM Phosphate, 150 mM NaCl, pH 7.4, 0.005% P-20) as the running buffer. A CM5 sensor chip was docked and derivatized by amine coupling with HIV-1HxBc2 WT and mutant gp120 subunits using freshly prepared 1:1 50 mM NHS (N-hydroxysuccinamide):200 mM EDC (1-ethyl-3-(3-(dimethylamino)propyl) carbodiimide). […] The equilibrium dissociation constant was calculated as KD = k−1/k1.
(§4) Rate constants k1 and k-1 are defined as they are in the 1:1 binding model, while k2 and k-2 are first order rate constants describing isomerization and de-isomerization, respectively. Equations describing the time course of the interactions can be found in Additional file 1: Method S1. For the fit, it was assumed that the states Env·PT and Env·PT^∗ had the same SPR signal. Rate constants were determined using a least-squares gradient-step algorithm coded in Visual Basic and implemented through Microsoft Excel.

[3] = target: HIV-1 HxBc2 gp120 V255I/S143N monomer (Human immunodeficiency virus type 1 group M subtype B, UniProt P04578, S143N/V255I); experiment: Surface plasmon resonance, V255I/S143N gp120; format: binding
Procedure: as §3, §4

CEM-GFP cells = experiment: WST-1 cytotoxicity assay; format: cell-based
Procedure: The cytotoxicity was determined on CEM-GFP cells via a colorimetric assay to measure the relative proliferation rates of cells in culture. […] After 18 h of incubation, the media containing compounds were discarded and treated with 10% (v/v) WST-1 (a tetrazolium salt) in fresh media for one hour at 37 °C. The cell viability was determined by measuring the absorbance at 450 nm using a Tecan Infinite F50 plate reader.
Figure S1. […] Data represent means and standard deviations of three independent experiments performed in triplicate.

[4] = target: HIV-1 HxBc2 gp120 WT monomer (Human immunodeficiency virus type 1 group M subtype B, UniProt P04578); experiment: Surface plasmon resonance, WT gp120; format: binding
Procedure: as §3, §4

[5] = target: HxBc2 gp120 V255I monomer (Human immunodeficiency virus type 1 group M subtype B, UniProt P04578, V255I); experiment: Isothermal titration calorimetry, V255I gp120; format: binding, HIV-1
Procedure: as §1, §2

[6] = target: HIV-1 HxBc2 gp120, wild type, monomeric (HIV-1 (HxBc2 strain)) (UniProt P04578); experiment: SPR
[7] = target: HIV-1 HxBc2 gp120 V255I, monomeric (HIV-1 (HxBc2 strain)) (UniProt P04578); experiment: SPR; Biacore 3000, 25 °C, PBS-P (10 mM phosphate, 150 mM NaCl, pH 7.4, 0.005% P-20); gp120 monomers amine-coupled to CM5 chip (1800–2200 RU), analytes flowed at 50 µL/min; AAR029b and sCD4 fitted to a Langmuir 1:1 model, KR13 to a three-state binding/isomerization model
[8] = target: HIV-1 HxBc2 gp120 V255I/S143N, monomeric (HIV-1 (HxBc2 strain)) (UniProt P04578); experiment: as above
[9] = target: HIV-1 HxBc2 gp120, wild type, monomeric (HIV-1 (HxBc2 strain)) (UniProt P04578); experiment: ITC
[10] = target: HIV-1 HxBc2 gp120 V255I, monomeric (HIV-1 (HxBc2 strain)) (UniProt P04578); experiment: ITC; VP-ITC, 25 °C, 1 × PBS pH 7.4; 60–100 µM PT titrated in 8 µL steps into 2–8 µM monomeric HxBc2 gp120; single site-binding model
[11] = target: HIV-1 HxBc2 gp120 V255I/S143N, monomeric (HIV-1 (HxBc2 strain)) (UniProt P04578); experiment: as above
[12] = target: HIV-1 NL4-3 Env V255T/S143N (HIV-1 (NL4-3 strain))
[13] = target: HIV-1 HxBc2 gp120 V255I, monomeric (HIV-1 (HxBc2 strain)) (UniProt P04578)
[14] = target: HIV-1 HxBc2 Env V255T/S143N (HIV-1 (HxBc2 strain)) (UniProt P04578)
[15] = target: HIV-1 NL4-3 Env V255I/S143N (HIV-1 (NL4-3 strain))
[16] = target: HIV-1 NL4-3 Env V255I (HIV-1 (NL4-3 strain))
[17] = target: HIV-1 HxBc2 gp120 V255I/S143N, monomeric (HIV-1 (HxBc2 strain)) (UniProt P04578)
[18] = target: HIV-1 HxBc2 Env S143N (HIV-1 (HxBc2 strain)) (UniProt P04578)
[19] = target: HIV-1 NL4-3 Env S143N (HIV-1 (NL4-3 strain))
[20] = target: HIV-1 HxBc2 Env V255T (HIV-1 (HxBc2 strain)) (UniProt P04578)
[21] = target: HIV-1 NL4-3 Env V255T (HIV-1 (NL4-3 strain))
[22] = V255I and V255I/S143N vs WT gp120
[23] = de-isomerization, three-state model
[24] = isomerization, three-state model

## CC[C@H](C)[C@H](NC(=O)[C@@H](N)CCCNC(=N)N)C(=O)N[C@@H](CC(N)=O)C(=O)N[C@@H](CC(N)=O)C(=O)N[C@H](C(=O)N1CC(n2cc([C]34[CH]5[CH]6[CH]7[CH]3[Fe]6754389%10[CH]4[CH]3[CH]8[CH]9[CH]4%10)nn2)C[C@H]1C(=O)N[C@@H](Cc1c[nH]c2ccccc12)C(=O)N[C@@H](CO)C(=O)N[C@@H](CCC(=O)O)C(=O)N[C@@H](C)C(=O)N[C@@H](CCSC)C(=O)N[C@@H](CCSC)C(=O)NCCC(=O)N[C@@H](CCC(N)=O)C(=O)NCCC(=O)N[C@@H](CS)C(N)=O)[C@@H](C)CC (stereo partly drawn) [KR13]
HxBc2 gp120 WT monomer
  ITC binding stoichiometry n: 1.1 ± 0.01
  ITC −TΔS: 7.8 ± 3.0 kcal/mol
BaL.01 viruses
  pEC50: 7.49
[1]
  ITC binding stoichiometry n: 1.1 ± 0.08
  ITC −TΔS: 1.9 ± 0.93 kcal/mol
[2]; [22]
  disruption of affinity by escape mutations, SPR: four to sixfold
  effect of escape mutations on de-isomerization kinetics, SPR: three to fourfold
[2]; V255I gp120, PT association
  SPR k1: 2.3 (M^−1 s^−1) × 10^–5
[2]; V255I gp120, PT dissociation
  SPR k-1: 14 (s^−1) × 10^3
[2]; V255I gp120, de-isomerization, three-state model
  SPR k-2: 0.72 (s^−1) × 10^3
[2]; V255I gp120, isomerization, three-state model
  SPR k2: 8.4 (s^−1) × 10^3
[3]; PT association
  SPR k1: 2.8 (M^−1 s^−1) × 10^–5
[3]; PT dissociation
  SPR k-1: 18 (s^−1) × 10^3
[3]; [23]
  SPR k-2: 1.0 (s^−1) × 10^3
[3]; [24]
  SPR k2: 9.0 (s^−1) × 10^3
CEM-GFP cells; 18 h
  concentration above which cytotoxicity was noted: above 25 μM
CEM-GFP cells; at a concentration of 125 μM
  cells dying: ~ 30%
[4]; PT association
  SPR k1: 2.9 (M^−1 s^−1) × 10^–5
[4]; PT dissociation
  SPR k-1: 9.6 (s^−1) × 10^3
[4]; [23]
  SPR k-2: 0.25 (s^−1) × 10^3
[4]; [24]
  SPR k2: 7.0 (s^−1) × 10^3
[5]; V255I gp120 (HxBc2), 25 °C
  ITC binding stoichiometry n: 1.0 ± 0.04
  ITC −TΔS: 2.9 ± 1.5 kcal/mol
[5]; mutant vs wild type gp120, ITC
  absolute impact of V255I substitution on enthalpy (ΔH) and entropy (TΔS): 5 to 7 kcal/mol

## KR13, linear peptide triazole thiol
[6]
  pKd: 8.96
  k1 (association step of the three-state model): 290000 M⁻¹ s⁻¹
  k2 (isomerization step of the three-state model): 0.007 s⁻¹
  k-1 (dissociation step of the three-state model): 0.0096 s⁻¹
  k-2 (de-isomerization step of the three-state model): 0.00025 s⁻¹
[7]
  k1 (association step of the three-state model): 230000 M⁻¹ s⁻¹
  k2 (isomerization step of the three-state model): 0.0084 s⁻¹
  k-1 (dissociation step of the three-state model): 0.014 s⁻¹
  k-2 (de-isomerization step of the three-state model): 0.00072 s⁻¹
[8]
  k1 (association step of the three-state model): 280000 M⁻¹ s⁻¹
  k2 (isomerization step of the three-state model): 0.009 s⁻¹
  k-1 (dissociation step of the three-state model): 0.018 s⁻¹
  k-2 (de-isomerization step of the three-state model): 0.001 s⁻¹
[9]
  pKd: 7.80
  dH: -19 kcal/mol
  stoichiometry N: 1.1
[10]
  dH: -13 kcal/mol
  stoichiometry N: 1
[11]
  dH: -12 kcal/mol
  stoichiometry N: 1.1
[12]
  IC50 of inhibition of single-round infection of HOS.T4.X4 cells by HIV-1 pseudotyped with NL4-3 Env (luciferase): 6200 nM
[13]
  IC50 of inhibition of single-round infection of HOS.T4.X4 cells by HIV-1 pseudotyped with HxBc2 Env (luciferase): 91 nM
[14]
  IC50 of inhibition of single-round infection of HOS.T4.X4 cells by HIV-1 pseudotyped with HxBc2 Env (luciferase): 7100 nM
[15]
  IC50 of inhibition of single-round infection of HOS.T4.X4 cells by HIV-1 pseudotyped with NL4-3 Env (luciferase): 3700 nM
[16]
  IC50 of inhibition of single-round infection of HOS.T4.X4 cells by HIV-1 pseudotyped with NL4-3 Env (luciferase): 120 nM
[17]
  IC50 of inhibition of single-round infection of HOS.T4.X4 cells by HIV-1 pseudotyped with HxBc2 Env (luciferase): 4600 nM
[18]
  IC50 of inhibition of single-round infection of HOS.T4.X4 cells by HIV-1 pseudotyped with HxBc2 Env (luciferase): 1.4 nM
[19]
  IC50 of inhibition of single-round infection of HOS.T4.X4 cells by HIV-1 pseudotyped with NL4-3 Env (luciferase): 3.5 nM
[20]
  IC50 of inhibition of single-round infection of HOS.T4.X4 cells by HIV-1 pseudotyped with HxBc2 Env (luciferase): 330 nM
[21]
  IC50 of inhibition of single-round infection of HOS.T4.X4 cells by HIV-1 pseudotyped with NL4-3 Env (luciferase): 360 nM
